B1: Type VI secretion system spike protein VgrG3 (Vibrio cholerae), Q9KN42 (parent)
chain: MARLQFQLKVDGLEDESLVVRGFEGQESLSDSVWRCEPCYGFRYQVDLASALSNLTAEQFVDQTAHLTILRDGQVVQQINGIVRQLSKGDTGHRHTFYSLTLVPALERLSLRSNSRIFQQQSVPEIISILLQEMGIEDYAFALKRECAQREFCVQYRETDLQFLHRIAAEEGLVYSHLHEAQKHTLLFTDSSDSQPKLAKPVPYNALAGGEINLPYVVDLQFKTTAQVSHTELKDYSFKKPAYGFTQRTQGKDIAYQQPNYEHFDAPGRYKDDANGKAFSQIRLEYLRRDALLADAKSDEPLLLAGVRFDLQDHLDHAMNRDWLVVQANHQGTQPQALQEEGGSGATTYSNQLKLIPAHITWRARPCAKPQVDGPMIATVVGPQGEEIYCDNFGRVKVHFPWDRYSSSNEKSSCWVRVAQEWAGSQYGSMAIPRVGHEVIVSFLNGDPDQPIITGRTYHATNTAPYALPDHKTKTVLRTETHQGQGYNELSFEDQAGSEQILLHAQKDWDALIEHDHTEVIRHDQHLTVDNDRFTRIQRNQHLTVEGEVRSKIALDSSHEVGASLQHKVGQRIAVEAGKEISLKSGAKIVVEAGAELTLKAGGSFVKVDAGGVHLVGPAINLNAGGSAGSGSAYGGQLAAAPRMLAQAKPVAELVQPDIAASMQSGAARVIDVASLPTMMPSSANNTANDEPVAEEKTPERILKSDLLKPSDELEKLAKRQASAYRQGNHSDEVKLLQEALIKLGFDLGKAGADGDFGSKTKTAIEQFQKSYQPSHQTHPSYSIGAVDGIVGKGTLLALDEALMDGWVYENNIYQIWPLGKTSEKYESAGRGPGVISTGNGDYGGASYGCYQMSSNLGVVQKYIQSSKFKEFFSGLNPATKEFNVVWQDIASRYPQEFREEQHQFIKRTHYDIQIGHLRGKGLLFEHNRAAVHDLIWSTSVQFGGRTNLIFNALNGQNMESMTDKDIIILVQDYKLVNTERLFKSSPSWWSDLKKRAVSEKKALLELEIDGLEVDIK
partner: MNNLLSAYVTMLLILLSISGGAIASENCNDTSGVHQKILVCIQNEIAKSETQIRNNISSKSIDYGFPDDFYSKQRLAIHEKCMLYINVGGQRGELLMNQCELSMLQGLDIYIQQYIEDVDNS

Variants of: B1
Settings: with tsiv3_vibch tsiV3, Q9KN41

Variant | effect of a mutation on the interaction
D842A | decreasing interaction

Variants of: B1
Settings: with tsiv3_vibch tsiV3, Q9KN41
Remark: another data set of the same source

Variant | effect of a mutation on the interaction
Y826A | decreasing interaction

Variants of: B1
Settings: with tsiv3_vibch tsiV3, Q9KN41
Remark: another data set of the same source

Variant | effect of a mutation on the interaction
R996A | decreasing interaction

Variants of: B1
Settings: with tsiv3_vibch tsiV3, Q9KN41
Remark: another data set of the same source

Variant | effect of a mutation on the interaction
Q942A | decreasing interaction

Variants of: B1
Settings: with tsiv3_vibch tsiV3, Q9KN41
Remark: another data set of the same source

Variant | effect of a mutation on the interaction
L982A | decreasing interaction

Variants of: B1
Settings: with tsiv3_vibch tsiV3, Q9KN41
Remark: another data set of the same source

Variant | effect of a mutation on the interaction
V941A | decreasing interaction
